We go through one substance from paper PMC5672941.

The test deals with SpyTag fused to an elastin-like polypeptide with a C-terminal cysteine. Kind of test: core-shell assembly of protein-coated particles.

Substance “SpyCatcher fused to an elastin-like polypeptide with a C-terminal cysteine (designed binder)” came in with a percent of the core aggregate surface occupied by green (shell) particles of 60%.
